Patent publication US20210269521A1 (L AND L BIOPHARMA, published 2021)

How the values were obtained:
[1] = biological target: T1, human PD-1 extracellular domain protein expressed in Example 1 (tag not stated) (human, UniProt Q15116 25-170); assay: ELISA, PD-1 coated
T1 construct: extracellular domain; also called PD-1 protein; not shown: human IgG1 Fc or his tag
Procedure: PD-1 expressed in Example 1 was diluted to a concentration of 1 μg/ml with PBS buffer, pH 7.4, and added to a 96-well microplate (Corning, CLS3590-100EA) at 50 μl per well, thereby incubating in an incubator at 37° C. for 2 hours. After discarding the liquid, a blocking solution of 5% skimmed milk (Shanghai Shenggong Biological Engineering Co., Ltd., A600669-0250) diluted with PBS was added at 200 μl per well, followed by incubating at 37° C. for 3 hours or 4° C. overnight (16-18 hours)) for blocking. Subsequently, the blocking solution was discarded, and the microplate was washed 5 times with PBST buffer (pH 7.4 PBS containing 0.05% tween-20). […] Subsequently, the microplate was washed 5 times with PBST, then 50 μl/well of 1:2500 diluted HRP-labeled secondary antibody (Jackson Immuno Research, 115-035-003) was added, thereby incubating at 37° C. for 1 hour. After washing the microplate 5 times with PBST, 50 μl/well TMB chromogenic substrate (KPL, 52-00-03) was added, then incubated at room temperature for 5-10 min. Finally, 50 μl/well of 1M H₂SO₄ was added to stop the reaction. […] Go microplate reader (ThermoFisher, 51119200) was used to read the absorption value at 450 nm and the EC50 based on the OD value was calculated.

[2] = biological target: T2, human TIM-3 extracellular domain-human IgG1 Fc fusion protein (human, UniProt Q8TDQ0 22-199); assay: ELISA; pH 5.5, 40°C 10 days
T2 construct: Made in house or bought (ACROBiosystems TM3-H5258); also called TIM-3-hFc; not shown: human IgG1 Fc

[3] = biological target: T1, human PD-1 extracellular domain protein …; assay: ELISA; pH 5.5, 40°C 10 days
[4] = biological target: T2, human TIM-3 extracellular domain-human …; assay: ELISA; PBS, 0 day, against 0 day
[5] = biological target: T1, human PD-1 extracellular domain protein …; assay: ELISA; PBS, 0 day, against 0 day
[6] = biological target: T2, human TIM-3 extracellular domain-human …; assay: ELISA; pH 5.5, 40°C 0 day (-80°C)
[7] = biological target: T1, human PD-1 extracellular domain protein …; assay: ELISA; pH 5.5, 40°C 0 day (-80°C)
[8] = biological target: T2, human TIM-3 extracellular domain-human …; assay: ELISA; pH 5.5, 0 day, against 0 day
[9] = biological target: T1, human PD-1 extracellular domain protein …; assay: ELISA; pH 5.5, 0 day, against 0 day
[10] = biological target: T2, human TIM-3 extracellular domain-human …; assay: ELISA; PBS, 37°C 7 days, against 0 day
[11] = biological target: T1, human PD-1 extracellular domain protein …; assay: ELISA; PBS, 37°C 7 days, against 0 day
[12] = biological target: T2, human TIM-3 extracellular domain-human …; assay: ELISA; pH 5.5, 37°C 10 days, against 0 day
[13] = biological target: T1, human PD-1 extracellular domain protein …; assay: ELISA; pH 5.5, 37°C 10 days, against 0 day
[14] = biological target: T2, human TIM-3 extracellular domain-human …; assay: ELISA; 15 mg/mL, His buffer pH 5.5, 37°C 0 day (-80°C)
[15] = biological target: T1, human PD-1 extracellular domain protein …; assay: as above
[16] = biological target: T2, human TIM-3 extracellular domain-human …; assay: ELISA; 15 mg/mL, His buffer pH 6.0, 37°C 0 day (-80°C)
[17] = biological target: T1, human PD-1 extracellular domain protein …; assay: as above
[18] = biological target: T2, human TIM-3 extracellular domain-human …; assay: ELISA, EC50 of bispecific over EC50 of the monoclonal control
[19] = biological target: T2, human TIM-3 extracellular domain-human …; assay: ELISA; 15 mg/mL in preparation buffer (20 mM His pH 6.0), 37°C 0 day (-80°C)
[20] = biological target: T1, human PD-1 extracellular domain protein …; assay: as above

EC50 [1]: 0.127 nM | EC50 [2]: 0.373 nM | EC50 [3]: 0.215 nM | Fold change of EC50 [4]: 1 ratio | Fold change of EC50 [5]: 1 ratio | EC50 [6]: 0.36 nM | EC50 [7]: 0.181 nM | Fold change of EC50 [8]: 1 ratio | Fold change of EC50 [9]: 1 ratio | Fold change of EC50 [10]: 1.28 ratio | Fold change of EC50 [11]: 1.16 ratio | Fold change of EC50 [12]: 0.85 ratio | Fold change of EC50 [13]: 1.1 ratio | EC50 [14]: 0.148 nM | EC50 [15]: 0.144 nM | EC50 [16]: 0.164 nM | EC50 [17]: 0.146 nM | Multiple of EC50 variation [18]: 0.83 ratio | EC50 [19]: 0.303 nM | EC50 [20]: 0.378 nM
B1: bispecific antibody LB141 (bispecific antibody, human IgG4 S228P, kappa)
light: EIVLTQSPATLSLSPGERATLSCRASKGVSTSGYSYLHWYQQKPGQAPRLLIYLASYLESGVPARFSGSGSGTDFTLTISSLEPEDFAVYYCQHSRDLPLTFGGGTKVEIKRTVAAPSVFIFPPSDEQLKSGTASVVCLLNNFYPREAKVQWKVDNALQSGNSQESVTEQDSKDSTYSLSSTLTLSKADYEKHKVYACEVTHQGLSSPVTKSFNRGEC
heavy: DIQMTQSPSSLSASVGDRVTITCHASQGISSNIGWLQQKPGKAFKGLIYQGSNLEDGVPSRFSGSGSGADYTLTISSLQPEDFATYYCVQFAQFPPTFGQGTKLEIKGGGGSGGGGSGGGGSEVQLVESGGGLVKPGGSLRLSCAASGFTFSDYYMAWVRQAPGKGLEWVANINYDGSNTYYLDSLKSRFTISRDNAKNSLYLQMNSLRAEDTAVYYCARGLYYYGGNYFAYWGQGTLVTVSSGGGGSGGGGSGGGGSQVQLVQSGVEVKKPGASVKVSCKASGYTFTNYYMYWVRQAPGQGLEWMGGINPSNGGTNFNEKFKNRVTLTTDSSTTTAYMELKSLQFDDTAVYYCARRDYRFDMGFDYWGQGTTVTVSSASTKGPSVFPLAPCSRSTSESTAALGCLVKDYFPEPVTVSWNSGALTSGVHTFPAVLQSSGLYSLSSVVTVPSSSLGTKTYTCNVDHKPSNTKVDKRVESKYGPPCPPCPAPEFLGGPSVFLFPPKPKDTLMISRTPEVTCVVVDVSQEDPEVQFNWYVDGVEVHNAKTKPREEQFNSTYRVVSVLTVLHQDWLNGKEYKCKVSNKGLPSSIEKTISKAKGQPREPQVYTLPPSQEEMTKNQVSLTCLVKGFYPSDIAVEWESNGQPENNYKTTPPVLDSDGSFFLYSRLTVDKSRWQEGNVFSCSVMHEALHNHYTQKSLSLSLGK
notes: ab6VL-(G4S)3-ab6VH-(G4S)3-PemVH-hIgG4 with PemVL-κ
